Experimental data: US20180334496A1 (KODIAK SCIENCES, published 2018)
Residue numbers refer to the chain shown, from its start. Where “and” joins values, the source holds several entries; their conditions need not be identical. Identical values can stand only once. Like-named read-outs stand apart in the source and are kept apart here.

B1: KCD118 (antibody, V domains shown)
VH: EVQLQQSGPELVKPGASVKISCKAFGYTFTDYYKNWMRQRHGESLEWIGDINPNSGDANYNQKFKGKATLTVDKSSSTAYMELRSLTSEDSAVYYCAREGPSFAYWGHGTLVTVSA
VL: DVLMTQTPLSLPVSLGDQASISCRSSQTIVHSNGDTYLEWYLQKPGQSPNLLIYKVSNRFSGVPDRFSGSGSGTDFTLKISRVEAEDLGIYYCFQGSHVPPTFGGGTKLEIK
notes: chimeric
B2: KCD121 (antibody, V domains shown)
VH: B1 VH with F25S, S55N, A58T, N59S, K65R, Y80F, H108Q
VL: B1 VL with S26N, K79R, I90V
notes: chimeric
B3: KCD123 (antibody, V domains shown)
VH: B1 VH with Q3H, F25S, Y32F, S55N, D57G, A58T, H108Q
VL: B1 VL with I90V
notes: chimeric
B4: KCD005 (antibody, V domains shown)
VH: EVQLQQSGPELVKPGASVKISCKASGYTFTDHYMNWVKQSHGKSLEWIGDINPNNGGTSCNQKFKGKATLTVDKSSSTAYMELRSLTSGDSAVYYCTREGASFAFWGQGTLVTVSA
VL: B1 VL with T28S, N50K, I90V, P101V, G105A, I111L
notes: chimeric
B5: 31S54I59D / 54R101V (antibody, V domains shown)
VH: EVQLVESGGGLVQPGGSLRLSCAASGYTFTSYYMNWVRQAPGKGLEWIGDINPITGDTDYNADFKRRFTFSLDTSKSTAYLQMNSLRAEDTAVYYCTREGPSFAYWGQGTLVTVSS
VL: DIQLTQSPSSLSASVGDRVTITCRSSQTIVHSNGDTYLEWYQQKPGKAPNLLIRKVSNRFSGVPSRFSGSGSGTDFTLTISSLQPEDFATYYCFQGSHVPVTFGQGTKVEIKR
notes: KCD119 TAF variant
B6: 31S54I59D84S / 54R101V (antibody, V domains shown)
VH: B5 VH with N84S
VL: B5 VL
notes: also called 31554159D845 / 54R101V

How the values were obtained:
[1] = target: T1, human complement factor D purified from serum (human, UniProt P00746 26-253); experiment: cell-based or functional assay
[2] = target: T2, recombinant human CFD mutant 1 (R157A, R207A), His-tagged (human, UniProt P00746 26-253); experiment: ELISA, Mut1 Binding, Bin 2
T2 construct: positions are linear positions in the mature protein; also called rhCFD-mut1-His; Mut1

[3] = target: T1, human complement factor D purified from …
[4] = target: T2, recombinant human CFD mutant 1 (R157A, …); experiment: ELISA
[5] = target: T3, recombinant human CFD, His-tagged (human, UniProt P00746 26-253); experiment: SPR MX96
T3 construct: also called rhCFD-His

[6] = target: T4, recombinant cynomolgus CFD, His-tagged (cynomolgus); experiment: SPR MX96
T4 construct: also called rcyCFD-His; recombinant Cyno-CFD

[7] = target: T1, human complement factor D purified from …; experiment: SPR MX96
[8] = target: T5, serum purified human Complement Factor D (human, UniProt P00746 26-253); experiment: SPR Biacore, 25 C
T5 construct: Serum purified protein flowed over the captured antibodies; also called CFD; human CFD

[9] = target: T5, serum purified human Complement Factor D; experiment: SPR Biacore, 25 C; remark: listed apart in the source
[10] = target: T5, serum purified human Complement Factor D; experiment: SPR Biacore, antibody on protein A chip, single cycle kinetics, 37 C;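 also: antibodies captured on the protein A surface to roughly 70 RU in HBS-EP+ buffer, with rate and affinity constants fitted using BIAevaluation software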
[11] = target: T5, serum purified human Complement Factor D; experiment: SPR Biacore, antibody on protein A chip, single cycle kinetics, 25 C;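 also: antibodies captured to roughly 70 RU on the protein A surface in HBS-EP+ running buffer, with kinetic constants derived by BIAevaluation fitting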
[12] = target: T5, serum purified human Complement Factor D; experiment: SPR Biacore, 37 C
[13] = target: T5, serum purified human Complement Factor D; experiment: SPR Biacore, 37 C; remark: listed apart in the source
For CFD Enzymatic activity (% of Neg Ctrl) in this document: test concentration or dose not given here.

T2 sequence (P00746 26-253 R182A/R232A limits assumed): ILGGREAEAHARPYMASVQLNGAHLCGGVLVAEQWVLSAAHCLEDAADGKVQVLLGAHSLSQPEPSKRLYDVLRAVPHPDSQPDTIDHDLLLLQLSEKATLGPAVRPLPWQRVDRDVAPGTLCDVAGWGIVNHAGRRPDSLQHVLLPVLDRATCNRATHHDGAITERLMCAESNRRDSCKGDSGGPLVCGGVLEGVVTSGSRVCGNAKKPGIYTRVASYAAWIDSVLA
T1 sequence (P00746 26-253): as the sequence (P00746 26-253 R182A/R232A limits assumed) above, with A157R, A207R counted along it
T3 sequence (P00746 26-253 limits assumed): as the sequence (P00746 26-253 R182A/R232A limits assumed) above, with A157R, A207R counted along it
T5 sequence (P00746 26-253): as the sequence (P00746 26-253 R182A/R232A limits assumed) above, with A157R, A207R counted along it

Binder	CFD Enzymatic activity (% of Neg Ctrl) [1]	binding result [2]	Kd [3] [nM]	Mut1 Binding (% wt) [4] [% wt]	Kd [5] [nM]	Kd [6] [nM]	Kd [7] [nM]	Kd [9] [pM]	koff [9] [s⁻¹]	kon [9] [M⁻¹ s⁻¹]	Kd [10]	koff [10]	kon [10]	Kd [11]	koff [11]	kon [11]	Kd [13] [pM]	koff [13] [s⁻¹]	kon [13] [M⁻¹ s⁻¹]	further results
B1	14 % of Neg Ctrl	no binding	0.0883	0.762	0.54	1.3	0.76													
B2	16.7 % of Neg Ctrl	no binding	0.293	0.602	1.3	2.9	1.8													
B3	18.7 % of Neg Ctrl	no binding	0.277	2.91	1.3	2.9	2.8													
B4	49.2 % of Neg Ctrl	no binding	0.726	1.79	1.2	2.3	1.4													
B5								3.66	5.12e-05	1.4e+07	6.05 pM and 6.91 pM and 8.17 pM	0.00021 s⁻¹ and 0.000214 s⁻¹ and 0.000227 s⁻¹	3.48e+07 M⁻¹ s⁻¹ and 3.09e+07 M⁻¹ s⁻¹ and 2.78e+07 M⁻¹ s⁻¹	7.79 pM and 3.66 pM and 8.36 pM	7.94e-05 s⁻¹ and 5.12e-05 s⁻¹ and 0.00012 s⁻¹	1e+07 M⁻¹ s⁻¹ and 1.4e+07 M⁻¹ s⁻¹ (2×)	6.91	0.000214	3.09e+07	Kd [8]: 8.36 pM; koff [8]: 0.00012 s⁻¹; kon [8]: 1.44e+07 M⁻¹ s⁻¹; Kd [12]: 8.17 pM; koff [12]: 0.000227 s⁻¹; kon [12]: 2.78e+07 M⁻¹ s⁻¹
B6								6.13	9.14e-05	1.49e+07	6.13 pM	0.000174 s⁻¹	2.84e+07 M⁻¹ s⁻¹	6.13 pM	9.14e-05 s⁻¹	1.49e+07 M⁻¹ s⁻¹	6.13	0.000174	2.84e+07	
